This note sets out measurements from paper PMC7065948.

Test in all cases: peptide or protein array
Test [1] addresses PTPESANL (PL8) (SIVsm (isolated from sooty mangabeys) strains).
Test [2] has as its target TTPESANL (TL8) (SIVmac251 strains).
In test [3] the target is Tat SL8 epitope (Tat 28-35) (SIVmac239).

Turning to “rhesus MHC class I Mamu-A1*001 complex (heavy chain with human β2 microglobulin) (from UniProt P61769 21-119)”, the binding score in test [1] was found to be 6.28; in test [2] it was 8.72; in test [3], 8.33. This substance also yielded a fluorescence intensity above the median (sd above the median) in test [3] of 7.15.
